According to patent publication CN114426577A (CHINESE DISEASE PREVENTION AND CONTROL CENTER FOR …, dated 2022):
Positions count from the first letter of the chain named.

B1: SWB8 (antibody, V domains shown)
VH: EVQLVESGGGLVQPGGSLRLSCAASGFTIRSYEMNWVRQAPGKGLEWVSYISSSGTTIYYADSVKGRFTISRDTAKNSLYLQMNSLRAEDTAVYYCAREGDYPSAEYFHHWGQGTLVTVSS
VL: DIVMTQSSVSLAVSLGERATINCKSSQSVLYSSTNRSYLAWYQQKPGQSPKLLIYWASTRESGVPDRFSGSGSGTDFTLTISSLQAEDVAVYYCQQYYSTRRTFGQGTKLEIKR
B2: LHC11 (antibody, V domains shown)
VH: EVQLVESGGGLIQPGGSLKLSCAATEIIVSRNYMTWVRQAPGKGLEWVSIIYPGGSSFYAESVKGRFTISRDEPKNTLFLQMNSLRVEDTAVYYCARGYGDYYFDFWGQGTLVTVSS
VL: EIVLTQSPVTLSLSPGERATLSCRASQSVSSSYLAWYQQKPGQAPRLLIYGASSRATGIPDRFSGSGSGTDFTLTISRLEPEDFAVYYCQQWLTFGGGTKVEIKV
B3: LHD2 (antibody, V domains shown)
VH: QMQLVQSGPEVKKPGTSLKVSCKASGFAFTTSAVQWVRQARGQPLEWIGWIAVGSGKADYAQRFQERVTISRDMSTTTAYMELSSLSSEDTAVYFCAAPFCTRTTCLDGFDIWGQGTMVTVSS
VL: EIVLTQSPVTLSLSPGERATLSCRAGQSVSRNYLGWYQQKPGQAPRLLIYAASSRATGIPDRFSGRGSGTDFTLTISRLEPEDFAVYYCQQYGTSPWTFGQGTKVEIKV
B4: LHD7 (antibody, V domains shown)
VH: QMQLVQSGPEVKKPGTSVKVSCKASGFTFITAAVQWVRQARGQRLEWIGWIAVGSGKTDYAQKFQERVTITRDISTSTAYMEVKSLRSEDTALYYCAAPQCNRTTCLDGFDIWGQGTKVIVSS
VL: B3 VL with G26S, N32S, A51G, S64R, R66S

These binders were tested against SARS-Cov-2 Omicron变异株的生物素化RBD(South Africa/CERI-KRISP-K032195/2021) (SARS-CoV-2 Omicron variant, UniProt P0DTC2 319-541) (assay: not given).

**Q.** With B1 as the binder, how does the Kd read?
**A.** < 1 pM

**Q.** Which Kd does the source give for B2 here?
**A.** 960 pM

**Q.** How did the Kd turn out when B3 was run?
**A.** < 1 pM

**Q.** With B4 as the binder, how does the Kd read?
**A.** < 1 pM

What follows are binders tested against SARS-CoV-2 S蛋白 (Delta变异株, 假病毒) (SARS-CoV-2 Delta variant, UniProt P0DTC2 14-1273) (assay: cell-based or functional assay).

**Q.** B1 was tested. Which “假病毒中和能力(IC50)” value did it give?
**A.** 0.018 µg/mL

**Q.** Which “假病毒中和能力(IC50)” value does the source give for B2 here?
**A.** 0.027 µg/mL

**Q.** B3 was tested. Which “假病毒中和能力(IC50)” value did it give?
**A.** 0.005 µg/mL

**Q.** With B4 as the binder, how does the “假病毒中和能力(IC50)” value read?
**A.** 0.008 µg/mL

These binders were tested against SARS-CoV-2 S蛋白 (Omicron变异株, 假病毒) (SARS-CoV-2 Omicron variant, UniProt P0DTC2 14-1273) (assay: cell-based or functional assay).

**Q.** For B1, which “假病毒中和能力(IC50)” value is on record?
**A.** 0.032 µg/mL

**Q.** With B2 as the binder, how does the “假病毒中和能力(IC50)” value read?
**A.** 0.024 µg/mL

**Q.** B3 was tested. Which “假病毒中和能力(IC50)” value did it give?
**A.** 0.045 µg/mL

**Q.** For B4, which “假病毒中和能力(IC50)” value is on record?
**A.** 0.025 µg/mL
